Experiments:
[1] = target: α2βγ heterotetramer of wild-type HsIDH3 (human) (UniProt P50213); test: SEC-MALS; low concentration (2 mg/ml); Superdex 200 10/300 GL, 24 °C, 10 mM HEPES pH 7.4, 200 mM NaCl, 5 mM β-ME
[2] = target: α2βγ heterotetramer of wild-type HsIDH3 (human) (UniProt P50213); test: SEC-MALS; high concentration (12 mg/ml); Superdex 200 10/300 GL, 24 °C, 10 mM HEPES pH 7.4, 200 mM NaCl, 5 mM β-ME

α2βγ heterotetramer of wild-type HsIDH3 (from UniProt P50213 28-366; O43837 35-385; P51553 40-393) (complex)
stoichiometry N (heterotetramers in the heterooctamer) [1]: 2 | stoichiometry N (heterotetramers in the heterooctamer) [2]: 2
